Data taken from paper PMC8777244 (Biochemistry and Biophysics Reports, 2022).
Read-outs that look alike come from different tables or passages of the source. Where no end group is shown, it is not given here. The star is where a group is joined. Dansyl = CN(C)c1cccc2c(S(=O)(=O)*)cccc12; MBP = maltose binding protein fusion

Experiments:
Dansyl-labeled CaM = Dansyl-labeled CaM (UniProt P0DP23 1-149, Dansyl label (site not stated)); experiment: other fluorescence titration
[1] = target: T1, recombinant 6xHis-tagged calmodulin (UniProt P0DP23 1-149); experiment: ITC
[2] = target: T1, recombinant 6xHis-tagged calmodulin; experiment: ITC; remark: listed apart in the source
[3] = target: T1, recombinant 6xHis-tagged calmodulin; experiment: ITC; remark: listed apart in the source
[4] = target: T1, recombinant 6xHis-tagged calmodulin; experiment: ITC; remark: listed apart in the source
[5] = target: C-terminal half domain of CaM (residues 76-149) fused to blue fluorescent protein (UniProt P0DP23 76-149); experiment: ITC
[6] = target: N-terminal half domain of CaM (residues 1-75) fused to cyan fluorescent protein (UniProt P0DP23 1-75); experiment: ITC
[7] = target: T1, recombinant 6xHis-tagged calmodulin; experiment: ITC; remark: listed apart in the source
[8] = target: T1, recombinant 6xHis-tagged calmodulin; experiment: fluorescence polarisation
[9] = target: T1, recombinant 6xHis-tagged calmodulin; experiment: other fluorescence titration
[10] = target: T1, recombinant 6xHis-tagged calmodulin; experiment: other fluorescence titration; remark: listed apart in the source
SEC [11] = target: the molecule itself; experiment: SEC
SEC [12] = target: the molecule itself; experiment: SEC; remark: listed apart in the source

B1: MBP-fused human Nox5β dehydrogenase domain residues 605-719 (domain or fragment)
chain: SLLTKLEMDQAEEAQYGRFLELHMYMTSALGKNDMKAIGLQMALDLLANKEKKDSITGLQTRTQPGRPDWSKVFQKVAAEKKGKVQVFFCGSPALAKVLKGHCEKFGFRFFQENF
Ka (Dansyl-labeled CaM): 2.52e+06 M⁻¹
stoichiometry N (Dansyl-labeled CaM): 1.02 [Peptide]/[Protein]
Ka [1]: 894000 M⁻¹
Ka [2]: ~1e+06 M⁻¹

B2: MBP-fused human Nox5β dehydrogenase domain residues 665-719 (domain or fragment)
chain: {MBP}-TRTQPGRPDWSKVFQKVAAEKKGKVQVFFCGSPALAKVLKGHCEKFGFRFFQENF
modifications: cysteine pairing not given here
Ka (Dansyl-labeled CaM): 4.9e+06 M⁻¹
stoichiometry N (Dansyl-labeled CaM): 0.92 [Peptide]/[Protein]
Ka [1]: 1.39e+06 M⁻¹

B3: human Nox5β CaM-binding domain (CMBD) peptide, residues 671-689 (peptide)
peptide: RPDWSKVFQKVAAEKKGKV
dH (per mole CMBD) [3]: -3.81 kcal/mol
stoichiometry N [3]: 1.83
Ka [4]: 878000 M⁻¹
dH (per mole protein) [4]: -6.94 kcal/mol
stoichiometry N [4]: 1.82 [peptide]/Protein]
Ka [5]: 950000 M⁻¹
dH (per mole protein) [5]: -4.02 kcal/mol
stoichiometry N [5]: 1.04 [peptide]/Protein]
Ka [6]: 2.42e+06 M⁻¹
dH (per mole protein) [6]: -3.94 kcal/mol
stoichiometry N [6]: 0.89 [peptide]/Protein]
Ka [7]: 1.02e+06 M⁻¹
Ka [8]: 8.64e+06 M⁻¹
Ka [9]: 1.71e+07 M⁻¹

B4: N-terminal Dansyl-labeled human Nox5β CMBD peptide (peptide)
peptide: Dansyl-RPDWSKVFQKVAAEKKGKV
Ka [10]: 4.95e+06 M⁻¹

B5: MBP-fused human Nox5β dehydrogenase domain residues 584-719 (domain or fragment, UniProt Q96PH1-4 584-719, looked up)
chain: KLHKVDFIWINRDQRSFEWFVSLLTKLEMDQAEEAQYGRFLELHMYMTSALGKNDMKAIGLQMALDLLANKEKKDSITGLQTRTQPGRPDWSKVFQKVAAEKKGKVQVFFCGSPALAKVLKGHCEKFGFRFFQENF
stoichiometry N (SEC [11]): ~4
Ka (Dansyl-labeled CaM): 1.82e+06 M⁻¹
stoichiometry N (Dansyl-labeled CaM): 0.89 [Peptide]/[Protein]
Ka [1]: 933000 M⁻¹
stoichiometry N (SEC [12]): ~3

B6: MBP-fused human Nox5β dehydrogenase domain residues 528-719 (domain or fragment)
chain: PTRRIFASEHAVLIGAGIGITPFASILQSIMYRHQKRKHTCPSCQHSWIEGVQDNMKLHKVDFIWINRDQRSFEWFVSLLTKLEMDQAEEAQYGRFLELHMYMTSALGKNDMKAIGLQMALDLLANKEKKDSITGLQTRTQPGRPDWSKVFQKVAAEKKGKVQVFFCGSPALAKVLKGHCEKFGFRFFQENF
Ka (Dansyl-labeled CaM): 1.39e+06 M⁻¹
stoichiometry N (Dansyl-labeled CaM): 0.92 [Peptide]/[Protein]
Ka [1]: 2.71e+06 M⁻¹
